Data from PMC5001591.

How the values were obtained:
Conditions in all cases: EMSA: 4 nM 32P-RNA, 1X RNA Structure Buffer, 1 ug yeast RNA in 10 ul, 37 C 15 min (plus 1 h room temperature with mRNA); native 6% PAGE, 0.5X TBE, 4 C; pH and …
Hfq [1] = assay: EMSA
Hfq [2] = biological target: Hfq (UniProt P0A6X3); assay: EMSA
Hfq [3] = biological target: Hfq (UniProt P0A6X3); assay: footprinting (RNase T1)

Sequence of Hfq (UniProt P0A6X3) (P0A6X3 2-102): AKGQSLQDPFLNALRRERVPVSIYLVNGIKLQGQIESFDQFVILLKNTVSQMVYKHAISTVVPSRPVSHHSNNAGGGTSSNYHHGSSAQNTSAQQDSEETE

Row | Substance | Kd (Hfq [1]) [nM] | Kd (Hfq [2]) [nM] | binding (Hfq [3])
1 | SdsN137 | 80 | – | –
2 | GGGAUUCAGGCAAUGAAUUACUUUUGCAAGCCAUCGCAUUCUCUUAUGUUAUUAAUGAGUUAUGCUGAUUUGUUAAGCAGUUUUAUCAGGCUUGAAAUGGCGUCCAGCCCCGACAGGUGAAUCGUCGGGGCUGAUUUUUUC [SdsN137] | – | 80 | binds
3 | SdsN178 | 28 | – | –
4 | GGGUUCAAACUAUCACAUAAAUAAGAUUUAUAUAUAAUUUAUAUUAUUCAGGCAAUGAAUUACUUUUGCAAGCCAUCGCAUUCUCUUAUGUUAUUAAUGAGUUAUGCUGAUUUGUUAAGCAGUUUUAUCAGGCUUGAAAUGGCGUCCAGCCCCGACAGGUGAAUCGUCGGGGCUGAUUUUUUC [SdsN178] | – | 28 | binds
